Measured values as given in US20150276762A1 (NVH MEDICINAL, published 2015).

Assays:
[1] = biological target: plasma von Willebrand factor of type 2 von Willebrand disease patients (Table I) (human) (UniProt P04275); assay: ELISA, coated at 2 µg/ml, plasma of Patient 7 (Type 2); collagen-binding activity over vWF antigen
[2] = biological target: plasma von Willebrand factor of type 1 von Willebrand disease patients (human) (UniProt P04275); assay: ELISA, coated at 2 µg/ml, plasma of Patient 4 (Type 1); collagen-binding activity over vWF antigen
[3] = biological target: plasma von Willebrand factor of type 1 von Willebrand disease patients (human) (UniProt P04275); assay: ELISA, coated at 2 µg/ml, plasma of Patient 5 (Type 1)
[4] = biological target: plasma von Willebrand factor of type 1 von Willebrand disease patients (human) (UniProt P04275); assay: ELISA, coated at 2 µg/ml, plasma of Patient 3 (Type 1); collagen-binding activity over vWF antigen
[5] = biological target: plasma von Willebrand factor of type 2 von Willebrand disease patients (Table I) (human) (UniProt P04275); assay: ELISA, coated at 2 µg/ml, plasma of Patient 7 (Type 2)
[6] = biological target: plasma von Willebrand factor of type 2 von Willebrand disease patients (Table I) (human) (UniProt P04275); assay: ELISA, coated at 2 µg/ml, plasma of Patient 8 (Type 2)
[7] = biological target: plasma von Willebrand factor of type 1 von Willebrand disease patients (human) (UniProt P04275); assay: ELISA, coated at 2 µg/ml, plasma of Patient 4 (Type 1)
[8] = biological target: plasma von Willebrand factor of type 1 von Willebrand disease patients (human) (UniProt P04275); assay: ELISA, coated at 2 µg/ml, plasma of Patient 5 (Type 1); collagen-binding activity over vWF antigen
[9] = biological target: plasma von Willebrand factor of type 2 von Willebrand disease patients (Table I) (human) (UniProt P04275); assay: ELISA, coated at 2 µg/ml, plasma of Patient 6 (Type 2)
[10] = biological target: plasma von Willebrand factor of type 2 von Willebrand disease patients (Table I) (human) (UniProt P04275); assay: ELISA, coated at 2 µg/ml, plasma of Patient 8 (Type 2); collagen-binding activity over vWF antigen
[11] = biological target: plasma von Willebrand factor of type 1 von Willebrand disease patients (human) (UniProt P04275); assay: ELISA, coated at 2 µg/ml, plasma of Patient 3 (Type 1)
[12] = biological target: plasma von Willebrand factor of type 2 von Willebrand disease patients (Table I) (human) (UniProt P04275); assay: ELISA, coated at 2 µg/ml, plasma of Patient 6 (Type 2); collagen-binding activity over vWF antigen
[13] = biological target: T1, plasma von Willebrand factor of healthy patients / control (reference) plasma (human, UniProt P04275 764-2813); assay: ELISA, coated at 2 µg/ml, plasma of Patient 1 (Normal); collagen-binding activity over vWF antigen
T1 construct: Unpurified, in diluted plasma; The read-out also depends on the amount of vWF in the plasma; also called Normal; Controls
Procedure: (§1) To that end, 100 μl of a solution containing the polypeptide at 2 or 10 μg/ml in phosphate buffer or any other suitable buffer is added in each well and incubated at 22° C. for 18 to 20 hours. After three washes with 200 μl of PBS-0.05% Tween, 200 μl of 1% BSA in phosphate buffer solution (Euromedex, 0.45 μm filter) is added in each well and incubated for 2 hours at room temperature (22° C.). After three washes with 200 μl of PBS-0.05% Tween, 100 μl of various concentrations (expressed in IU/dl) of purified von Willebrand factor (Wilfactin, 100 IU/ml, LFB) and/or of patient plasma diluted in phosphate buffer or any other suitable buffer is incubated for 1.5 hours at room temperature (22° C.). After three new washes, 100 μl of a solution containing a primary anti-vWF antibody coupled with horseradish peroxidase (rabbit anti-human vWF/HRP, DAKO) diluted to 1/8000 in phosphate buffer or any other suitable buffer is incubated for 1 hour at 22° C. and then washed 4 times as described above. 125 μl of tetramethylbenzidine solution (TMB, Sigma) as peroxidase substrate is added and then incubation is carried out in the dark for 10 to a maximum of 45 minutes. The reaction is quenched by adding 125 μl of 2 N HCl (Sigma). Absorbance is quickly measured at 450 nm in a spectrophotometer (Wallac Victor 3). […]

[14] = biological target: T2, plasma von Willebrand factor of a patient suspected of having anti-vWF antibody (mimicking type III) (human, UniProt P04275 764-2813, limits assumed); assay: ELISA, coated at 2 µg/ml, plasma of Patient 9 (vWF activity); collagen-binding activity over vWF antigen
T2 construct: Almost no vWF antigen in this plasma; also called Patient 9; vWF activity
Procedure: as §1

[15] = biological target: T1, plasma von Willebrand factor of healthy …; assay: ELISA, coated at 2 µg/ml, plasma of Patient 2 (Normal); collagen-binding activity over vWF antigen
Procedure: as §1

In the case of “type III collagen (BD Biosciences), used as a reference (from UniProt P02461 154-1221)”, the CB/Ag ratio [1] is reported as 0.48, the CB/Ag ratio [2] is reported as 1.41 and the Mean CB % [3] is reported as 17%. The CB/Ag ratio [4] was 0.82, the Mean CB % [5] was 19% and the Mean CB % [6] was 24%. It also gave a Mean CB % [7] of 24%, a CB/Ag ratio [8] of 0.77 and a Mean CB % [9] of 17%. It also gave a CB/Ag ratio [10] of 0.89, a Mean CB % [11] of 37% and a CB/Ag ratio [12] of 0.74.

B1: type III collagen (BD Biosciences), used as a reference (other, human, UniProt P02461 154-1221, looked up)
chain: QYDSYDVKSGVAVGGLAGYPGPAGPPGPPGPPGTSGHPGSPGSPGYQGPPGEPGQAGPSGPPGPPGAIGPSGPAGKDGESGRPGRPGERGLPGPPGIKGPAGIPGFPGMKGHRGFDGRNGEKGETGAPGLKGENGLPGENGAPGPMGPRGAPGERGRPGLPGAAGARGNDGARGSDGQPGPPGPPGTAGFPGSPGAKGEVGPAGSPGSNGAPGQRGEPGPQGHAGAQGPPGPPGINGSPGGKGEMGPAGIPGAPGLMGARGPPGPAGANGAPGLRGGAGEPGKNGAKGEPGPRGERGEAGIPGVPGAKGEDGKDGSPGEPGANGLPGAAGERGAPGFRGPAGPNGIPGEKGPAGERGAPGPAGPRGAAGEPGRDGVPGGPGMRGMPGSPGGPGSDGKPGPPGSQGESGRPGPPGPSGPRGQPGVMGFPGPKGNDGAPGKNGERGGPGGPGPQGPPGKNGETGPQGPPGPTGPGGDKGDTGPPGPQGLQGLPGTGGPPGENGKPGEPGPKGDAGAPGAPGGKGDAGAPGERGPPGLAGAPGLRGGAGPPGPEGGKGAAGPPGPPGAAGTPGLQGMPGERGGLGSPGPKGDKGEPGGPGADGVPGKDGPRGPTGPIGPPGPAGQPGDKGEGGAPGLPGIAGPRGSPGERGETGPPGPAGFPGAPGQNGEPGGKGERGAPGEKGEGGPPGVAGPPGGSGPAGPPGPQGVKGERGSPGGPGAAGFPGARGLPGPPGSNGNPGPPGPSGSPGKDGPPGPAGNTGAPGSPGVSGPKGDAGQPGEKGSPGAQGPPGAPGPLGIAGITGARGLAGPPGMPGPRGSPGPQGVKGESGKPGANGLSGERGPPGPQGLPGLAGTAGEPGRDGNPGSDGLPGRDGSPGGKGDRGENGSPGAPGAPGHPGPPGPVGPAGKSGDRGESGPAGPAGAPGPAGSRGAPGPQGPRGDKGETGERGAAGIKGHRGFPGNPGAPGSPGPAGQQGAIGSPGPAGPRGPVGPSGPPGKDGTSGHPGPIGPPGPRGNRGERGSEGSPGHPGQPGPPGPPGAPGPCCGGVGAAAIAGIGGEKAGGFAPYYG
notes: also called native type III collagen
In the case of B1, the CB/Ag ratio [13] is reported as 1.4, the CB/Ag ratio [14] is reported as 0 and the CB/Ag ratio [15] is reported as 1.22.
